Laboratory results reported in patent EP4671273A1 (Anaveon AG, dated 2025).

B1: ZAP122m1 Fab (Fab, V domains shown)
VH: QVQLQESGPGLVKPSETLSLTCTVSGGSISSDFWGWIRQPPGKGLEWIGYISSRGSTNYNPSLKRRVTISVDTSRNQFSLKLSSVTAADTAVYYCARSAGVTDFDFWGQGTLVTVSS
VL: DIQMTQSPSSVSASVGDRVTITCRASQGISSWLAWYYHKPGKAPKLLIYVASSLQSGVPSRFSGSGSGTDFTLTISSLQPEDFATYYCQQANSFPLTFGGGTKVEIK
notes: Fab
B2: ZAP122m7 Fab (Fab, V domains shown)
VH: QVQLQESGPGLVKPSETLSLTCTVSGGSISSDFWGWIRQPPGKGLEWIGYISSRGSTNYNPSLKRRVTISVDTSRNQFSLKLSSVTAADTAVYYCARSAGVTDFDFWGQGTLVTVSS
VL: DIQMTQSPSSVSASVGDRVTITCRASQGISSWLAWYQHKPGKAPKLLIYVASSLQSGVPSRFSGSGSGTDFTLTISSLQPEDFATYYCQQANAFPLTFGGGTKVEIK
notes: Fab
B3: ZAP122m4 Fab (Fab, V domains shown)
VH: QVQLQESGPGLVKPSETLSLTCTVSGGSISSDFWGWIRQPPGKGLEWIGYISSRGSTNYNPSLKRRVTISVDTSRNQFSLKLSSVTAADTAVYYCARSAGVTDFDFWGQGTLVTVSS
VL: DIQMTQSPSSVSASVGDRVTITCRASQGISSWLAWYQHKPGKAPKLLIYVASSLQSGVPSRFSGSGSGTDFTLTISSLQPEDFATYYCAQANSFPLTFGGGTKVEIK
notes: Fab
B4: ZAP122m3 Fab (Fab, V domains shown)
VH: QVQLQESGPGLVKPSETLSLTCTVSGGSISSDFWGWIRQPPGKGLEWIGYISSRGSTNYNPSLKRRVTISVDTSRNQFSLKLSSVTAADTAVYYCARSAGVTDFDFWGQGTLVTVSS
VL: DIQMTQSPSSVSASVGDRVTITCRASQGISSWLAWYQHKPGKAPKLLIYAASSLQSGVPSRFSGSGSGTDFTLTISSLQPEDFATYYCQQANSFPLTFGGGTKVEIK
notes: Fab
B5: ZAP122m5 Fab (Fab, V domains shown)
VH: QVQLQESGPGLVKPSETLSLTCTVSGGSISSDFWGWIRQPPGKGLEWIGYISSRGSTNYNPSLKRRVTISVDTSRNQFSLKLSSVTAADTAVYYCARSAGVTDFDFWGQGTLVTVSS
VL: DIQMTQSPSSVSASVGDRVTITCRASQGISSWLAWYQHKPGKAPKLLIYVASSLQSGVPSRFSGSGSGTDFTLTISSLQPEDFATYYCQAANSFPLTFGGGTKVEIK
notes: Fab
B6: ZAP122m6 Fab (Fab, V domains shown)
VH: QVQLQESGPGLVKPSETLSLTCTVSGGSISSDFWGWIRQPPGKGLEWIGYISSRGSTNYNPSLKRRVTISVDTSRNQFSLKLSSVTAADTAVYYCARSAGVTDFDFWGQGTLVTVSS
VL: DIQMTQSPSSVSASVGDRVTITCRASQGISSWLAWYQHKPGKAPKLLIYVASSLQSGVPSRFSGSGSGTDFTLTISSLQPEDFATYYCQQAASFPLTFGGGTKVEIK
notes: Fab
B7: ZAP122m8 Fab (Fab, V domains shown)
VH: QVQLQESGPGLVKPSETLSLTCTVSGGSISSDFWGWIRQPPGKGLEWIGYISSRGSTNYNPSLKRRVTISVDTSRNQFSLKLSSVTAADTAVYYCARSAGVTDFDFWGQGTLVTVSS
VL: DIQMTQSPSSVSASVGDRVTITCRASQGISSWLAWYQHKPGKAPKLLIYVASSLQSGVPSRFSGSGSGTDFTLTISSLQPEDFATYYCQQANSAPLTFGGGTKVEIK
notes: Fab
B8: ZAP122m2 Fab (Fab, V domains shown)
VH: QVQLQESGPGLVKPSETLSLTCTVSGGSISSDFWGWIRQPPGKGLEWIGYISSRGSTNYNPSLKRRVTISVDTSKNQFSLKLSSVTAADTAVYYCARSAGVTDFDFWGQGTLVTVSS
VL: DIQMTQSPSSVSASVGDRVTITCRASQGISSWLAWYQHKPGKAPKLLIYVASSLQSGVPSRFSGSGSGTDFTLTISSLQPEDFATYYCQQANSFPLTFGGGTKVEIK
notes: Fab

Target: T1, Recombinant hIL-21-Fc (AcroBiosystems) (human, UniProt Q9HBE4 30-162)
T1 construct: bought; also called rhIL-21; not shown: Fc of the bought reagent, not described
Assay: SPR, Fab on captured rhIL-21-Fc

T1 sequence (Q9HBE4 30-162): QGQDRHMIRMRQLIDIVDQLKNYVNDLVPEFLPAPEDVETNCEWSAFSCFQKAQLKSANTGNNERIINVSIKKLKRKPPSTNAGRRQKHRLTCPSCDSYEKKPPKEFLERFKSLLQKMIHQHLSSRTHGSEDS

Binder	Kd	koff	kon
B1	0.0517 nM	1.91e-05 s⁻¹	369000 M⁻¹ s⁻¹
B2	< 0.0258 nM	< 1e-05 s⁻¹	387000 M⁻¹ s⁻¹
B3	3.49 nM	0.000253 s⁻¹	72400 M⁻¹ s⁻¹
B4	0.251 nM	9.3e-05 s⁻¹	370000 M⁻¹ s⁻¹
B5	≤ 0.088 nM	≤ 1e-05 s⁻¹	114000 M⁻¹ s⁻¹
B6	0.0379 nM	1.43e-05 s⁻¹	379000 M⁻¹ s⁻¹
B7	9.49 nM	0.00251 s⁻¹	264000 M⁻¹ s⁻¹
B8	0.034 nM	1.23e-05 s⁻¹	363000 M⁻¹ s⁻¹
